This data set deals with the molecule itself. The experiment in a line: SEC; Superdex 200 Increase 5/150 GL, 50 mM HEPES pH 7, 300 mM KCl, room temperature, 0.3 mL/min; loaded at 23 µM, eluting at around 7.5 µM; apparent mass against a calibration curve; self-association (dimer). (Size exclusion chromatography separates by hydrodynamic size, large species first.)

B1: phosphoserine aminotransferase (PSAT), wild type, human, PSAT beta (enzyme)
chain: MDAPRQVVNFGPGPAKLPHSVLLEIQKELLDYKGVGISVLEMSHRSSDFAKIINNTENLVRELLAVPDNYKVIFLQGGGCGQFSAVPLNLIGLKAGRCADYVVTGAWSAKAAEEAKKFGTINIVHPKLGSYTKIPDPSTWNLNPDASYVYYCANETVHGVEFDFIPDVKGAVLVCDMSSNFLSKPVDVSKFGVIFAGAQKNVGSAGVTVVIVRDDLLGFALRECPSVLEYKVQAGNSSLYNTPPCFSIYVMGLVLEWIKNNGGAAAMEKLSSIKSQTIYEIIDNSQGFYVCPVEPQNRSKMNIPFRIGNAKGDDALEKRFLDKALELNMLSLKGHRSVGGIRASLYNAVTIEDVQKLAAFMKKFLEMHQL
notes: human phosphoserine aminotransferase, splice form PSAT beta (the long form; PSAT alpha lacks 46 amino acids between V290 and S337); PLP-dependent homodimer; also called wt PSAT; WT; source: E. coli BL21(DE3) tuner, purified (IMAC, Talon superflow); not shown: His tag (from the IMAC purification on Talon)
A word on the stoichiometry N: it is a count of units in the complex or per binding partner. Turning to B1, the “stoichiometry N” value turned out to be 2.

The record behind these values is publication PMC10452355, “Phosphoserine Aminotransferase Pathogenetic Variants in Serine Deficiency Disorders: A Functional Characterization” (Biomolecules, 2023).
